Measurements taken from IntAct's records for PubMed 19966221.

B1: mRNA-decapping enzyme 1A (Homo sapiens), Q9NPI6 (parent)
chain: MEALSRAGQEMSLAALKQHDPYITSIADLTGQVALYTFCPKANQWEKTDIEGTLFVYRRSASPYHGFTIVNRLNMHNLVEPVNKDLEFQLHEPFLLYRNASLSIYSIWFYDKNDCHRIAKLMADVVEEETRRSQQAARDKQSPSQANGCSDHRPIDILEMLSRAKDEYERNQMGDSNISSPGLQPSTQLSNLGSTETLEEMPSGSQDKSAPSGHKHLTVEELFGTSLPKEQPAVVGLDSEEMERLPGDASQKEPNSFLPFPFEQLGGAPQSETLGVPSAAHHSVQPEITTPVLITPASITQSNEKHAPTYTIPLSPVLSPTLPAEAPTAQVPPSLPRNSTMMQAVKTTPRQRSPLLNQPVPELSHASLIANQSPFRAPLNVTNTAGTSLPSVDLLQKLRLTPQHDQIQTQPLGKGAMVASFSPAAGQLATPESFIEPPSKTAAARVAASASLSNMVLAPLQSMQQNQDPEVFVQPKVLSSAIPVAGAPLVTATTTAVSSVLLAPSVFQQTVTRSSDLERKASSPSPLTIGTPESQRKPSIILSKSQLQDTLIHLIKNDSSFLSTLHEVYLQVLTKNKDNHNL
B2: mRNA-decapping enzyme 1A (Homo sapiens), Q9NPI6 (parent)
chain: B1 chain
partner: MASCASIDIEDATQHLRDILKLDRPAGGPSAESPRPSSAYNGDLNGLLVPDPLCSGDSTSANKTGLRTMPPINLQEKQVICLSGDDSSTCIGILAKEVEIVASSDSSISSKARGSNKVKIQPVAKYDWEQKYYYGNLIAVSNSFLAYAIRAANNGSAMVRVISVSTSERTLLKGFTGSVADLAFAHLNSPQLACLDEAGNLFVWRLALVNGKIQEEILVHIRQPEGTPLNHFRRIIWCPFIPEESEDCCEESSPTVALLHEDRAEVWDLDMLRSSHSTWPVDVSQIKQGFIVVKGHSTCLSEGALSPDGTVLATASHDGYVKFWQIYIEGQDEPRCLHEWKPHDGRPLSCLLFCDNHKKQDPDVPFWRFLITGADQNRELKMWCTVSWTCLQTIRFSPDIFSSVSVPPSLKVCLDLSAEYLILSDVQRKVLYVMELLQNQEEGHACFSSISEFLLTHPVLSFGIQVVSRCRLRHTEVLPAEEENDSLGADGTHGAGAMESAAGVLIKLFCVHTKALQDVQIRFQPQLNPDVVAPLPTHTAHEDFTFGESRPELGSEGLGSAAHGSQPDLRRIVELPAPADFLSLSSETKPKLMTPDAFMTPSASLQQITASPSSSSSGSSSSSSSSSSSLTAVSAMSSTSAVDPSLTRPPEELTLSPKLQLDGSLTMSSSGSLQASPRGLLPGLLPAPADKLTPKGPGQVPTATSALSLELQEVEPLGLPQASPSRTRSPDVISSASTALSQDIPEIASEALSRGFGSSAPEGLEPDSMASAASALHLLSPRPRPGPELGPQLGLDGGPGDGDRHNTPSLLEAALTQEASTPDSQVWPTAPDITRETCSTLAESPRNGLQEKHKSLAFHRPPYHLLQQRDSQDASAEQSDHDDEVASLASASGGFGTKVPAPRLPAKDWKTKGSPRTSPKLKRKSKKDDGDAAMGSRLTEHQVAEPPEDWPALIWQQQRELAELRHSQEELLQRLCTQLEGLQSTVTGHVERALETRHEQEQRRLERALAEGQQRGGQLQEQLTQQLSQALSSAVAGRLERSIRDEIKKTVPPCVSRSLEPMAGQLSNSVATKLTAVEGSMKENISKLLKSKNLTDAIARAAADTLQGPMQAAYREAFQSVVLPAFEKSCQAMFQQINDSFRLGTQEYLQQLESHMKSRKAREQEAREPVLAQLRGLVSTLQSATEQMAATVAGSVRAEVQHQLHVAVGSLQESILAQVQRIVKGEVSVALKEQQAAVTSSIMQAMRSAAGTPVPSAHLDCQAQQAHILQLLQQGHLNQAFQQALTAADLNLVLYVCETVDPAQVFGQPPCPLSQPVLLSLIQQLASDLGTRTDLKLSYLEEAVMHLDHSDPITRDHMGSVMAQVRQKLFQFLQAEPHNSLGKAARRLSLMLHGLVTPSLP

Variants of: B1
Conditions: with dcp2_human DCP2, Q8IU60

Effect of a mutation on the interaction, disrupting interaction:
MEALSRAGQEMSLAALKQHDPYITSIADLTGQVALYTFCPKANQWEKTDIEGTLFVYRRSASPYHGFTIVNRLNMHNLVEPVNKDLEFQLHEPFLLYRNASLSIYSIWFYDKNDCHRIAKLMADVVEEETRRSQQAARDKQSPSQANGCSDHRPIDILEMLSRAKDEYERNQMGDSNISSPGLQPSTQLSNLGSTETLEEMPSGSQDKSAPSGHKHLTVEELFGTSLPKEQPAVVGLDSEEMERLPGDASQKEPNSFLPFPFEQLGGAPQSETLGVPSAAHHSVQPEITTPVLITPASITQSNEKHAPTYTIPLSPVLSPTLPAEAPTAQVPPSLPRNSTMMQAVKTTPRQRSPLLNQPVPELSHASLIANQSPFRAPLNVTNTAGTSLPSVDLLQKLRLTPQHDQIQTQPLGKGAMVASFSPAAGQLATPESFIEPPSKTAAARVAASASLSNMVLAPLQSMQQNQDPEVFVQPKVLSSAIPVAGAPLVTATTTAVSSVLLAPSVFQQTVTRSSDLERKASSPSPLTIGTPESQRKPSIILSKSQLQDTLIHSIKNDSSRLSTSHEVYLQVLTKNKDNHNL [L554S;F561R;L565S]
MEALSRAGQEMSLAALKQHDPYITSIADLTGQVALYTFCPKANQWEKTDIEGTLFVYRRSASPYHGFTIVNRLNMHNLVEPVNKDLEFQLHEPFLLYRNASLSIYSIWFYDKNDCHRIAKLMADVVEEETRRSQQAARDKQSPSQANGCSDHRPIDILEMLSRAKDEYERNQMGDSNISSPGLQPSTQLSNLGSTETLEEMPSGSQDKSAPSGHKHLTVEELFGTSLPKEQPAVVGLDSEEMERLPGDASQKEPNSFLPFPFEQLGGAPQSETLGVPSAAHHSVQPEITTPVLITPASITQSNEKHAPTYTIPLSPVLSPTLPAEAPTAQVPPSLPRNSTMMQAVKTTPRQRSPLLNQPVPELSHASLIANQSPFRAPLNVTNTAGTSLPSVDLLQKLRLTPQHDQIQTQPLGKGAMVASFSPAAGQLATPESFIEPPSKTAAARVAASASLSNMVLAPLQSMQQNQDPEVFVQPKVLSSAIPVAGAPLVTATTTAVSSVLLAPSVFQQTVTRSSDLERKASSPSPLTIGTPESQRKPSIILSKSQLQDTLSHLRKNDSSFESTLHEVYLQVLTKNKDNHNL [I552S;I555R;L562E]
MEALSRAGQEMSLAALKQHDPYITSIADLTGQVALYTFCPKANQWEKTDIEGTLFVYRRSASPYHGFTIVNRLNMHNLVEPVNKDLEFQLHEPFLLYRNASLSIYSIWFYDKNDCHRIAKLMADVVEEETRRSQQAARDKQSPSQANGCSDHRPIDILEMLSRAKDEYERNQMGDSNISSPGLQPSTQLSNLGSTETLEEMPSGSQDKSAPSGHKHLTVEELFGTSLPKEQPAVVGLDSEEMERLPGDASQKEPNSFLPFPFEQLGGAPQSETLGVPSAAHHSVQPEITTPVLITPASITQSNEKHAPTYTIPLSPVLSPTLPAEAPTAQVPPSLPRNSTMMQAVKTTPRQRSPLLNQPVPELSHASLIANQSPFRAPLNVTNTAGTSLPSVDLLQKLRLTPQHDQIQTQPLGKGAMVASFSPAAGQLATPESFIEPPSKTAAARVAASASLSNMVLAPLQSMQQNQDPEVFVQPKVLSSAIPVAGAPLVTATTTAVSSVLLAPSVFQQTVTRSSDLERKASSPSPLTIGTPESQRKPSIILSKSQLQDTRIHLSKNDSSRLSTSHEVYLQVLTKNKDNHNL [L551R;I555S;F561R;L565S]

Variants of: B2
Conditions: with edc4_human EDC4, Q6P2E9

Effect of a mutation on the interaction, disrupting interaction:
MEALSRAGQEMSLAALKQHDPYITSIADLTGQVALYTFCPKANQWEKTDIEGTLFVYRRSASPYHGFTIVNRLNMHNLVEPVNKDLEFQLHEPFLLYRNASLSIYSIWFYDKNDCHRIAKLMADVVEEETRRSQQAARDKQSPSQANGCSDHRPIDILEMLSRAKDEYERNQMGDSNISSPGLQPSTQLSNLGSTETLEEMPSGSQDKSAPSGHKHLTVEELFGTSLPKEQPAVVGLDSEEMERLPGDASQKEPNSFLPFPFEQLGGAPQSETLGVPSAAHHSVQPEITTPVLITPASITQSNEKHAPTYTIPLSPVLSPTLPAEAPTAQVPPSLPRNSTMMQAVKTTPRQRSPLLNQPVPELSHASLIANQSPFRAPLNVTNTAGTSLPSVDLLQKLRLTPQHDQIQTQPLGKGAMVASFSPAAGQLATPESFIEPPSKTAAARVAASASLSNMVLAPLQSMQQNQDPEVFVQPKVLSSAIPVAGAPLVTATTTAVSSVLLAPSVFQQTVTRSSDLERKASSPSPLTIGTPESQRKPSIILSKSQLQDTLIHSIKNDSSRLSTSHEVYLQVLTKNKDNHNL [L554S;F561R;L565S]
MEALSRAGQEMSLAALKQHDPYITSIADLTGQVALYTFCPKANQWEKTDIEGTLFVYRRSASPYHGFTIVNRLNMHNLVEPVNKDLEFQLHEPFLLYRNASLSIYSIWFYDKNDCHRIAKLMADVVEEETRRSQQAARDKQSPSQANGCSDHRPIDILEMLSRAKDEYERNQMGDSNISSPGLQPSTQLSNLGSTETLEEMPSGSQDKSAPSGHKHLTVEELFGTSLPKEQPAVVGLDSEEMERLPGDASQKEPNSFLPFPFEQLGGAPQSETLGVPSAAHHSVQPEITTPVLITPASITQSNEKHAPTYTIPLSPVLSPTLPAEAPTAQVPPSLPRNSTMMQAVKTTPRQRSPLLNQPVPELSHASLIANQSPFRAPLNVTNTAGTSLPSVDLLQKLRLTPQHDQIQTQPLGKGAMVASFSPAAGQLATPESFIEPPSKTAAARVAASASLSNMVLAPLQSMQQNQDPEVFVQPKVLSSAIPVAGAPLVTATTTAVSSVLLAPSVFQQTVTRSSDLERKASSPSPLTIGTPESQRKPSIILSKSQLQDTLSHLRKNDSSFESTLHEVYLQVLTKNKDNHNL [I552S;I555R;L562E]
MEALSRAGQEMSLAALKQHDPYITSIADLTGQVALYTFCPKANQWEKTDIEGTLFVYRRSASPYHGFTIVNRLNMHNLVEPVNKDLEFQLHEPFLLYRNASLSIYSIWFYDKNDCHRIAKLMADVVEEETRRSQQAARDKQSPSQANGCSDHRPIDILEMLSRAKDEYERNQMGDSNISSPGLQPSTQLSNLGSTETLEEMPSGSQDKSAPSGHKHLTVEELFGTSLPKEQPAVVGLDSEEMERLPGDASQKEPNSFLPFPFEQLGGAPQSETLGVPSAAHHSVQPEITTPVLITPASITQSNEKHAPTYTIPLSPVLSPTLPAEAPTAQVPPSLPRNSTMMQAVKTTPRQRSPLLNQPVPELSHASLIANQSPFRAPLNVTNTAGTSLPSVDLLQKLRLTPQHDQIQTQPLGKGAMVASFSPAAGQLATPESFIEPPSKTAAARVAASASLSNMVLAPLQSMQQNQDPEVFVQPKVLSSAIPVAGAPLVTATTTAVSSVLLAPSVFQQTVTRSSDLERKASSPSPLTIGTPESQRKPSIILSKSQLQDTRIHLSKNDSSRLSTSHEVYLQVLTKNKDNHNL [L551R;I555S;F561R;L565S]
